B1: OR4K15 (parent)
chain: GUUAACGGUCAUAGGCCAUGGAAACUAGGAGCACCAUUUCGCUGCCAGUGAAGAAAUGAACAAAGAAAAUCUGGGCCAGGCAGGCAUCAAAAGAAAUAGUCUUGCGCUCAACCAGAAAGUCUGUAAUCAUUUUAAGGGUA

Variants of: B1
Assay: self-cleavage, relative activity (ratio to wild type); higher = more cleavage; in vitro, sequencing; the parent is a self-cleaving ribozyme

In order of rising self-cleavage:
1. GUUAAUGGUCAUAGGCCAUGGAAACUAGGAGCACCAUUUCGCUGCCAGUGAAGAAAUGAACAAAGAAAAUCUGGGCCAGGCAGGCAUCAAAAGAAAUAGUCUUGCUCUCAACCAGAAAGUCUGUAAUCAUUUUAAGGGUA [C6U G106U]  0.06
2. GUUAAUGGUCAUAGGCCAUGGAAACUAGGAGCACCAUUUCGCUGCCAGUGAAGAAAUGAACAAAGAAAAUCUGGGCCAGGCAGGCAUCAAAAGAAAUAGUCUUGCGCCCAACCAGAAAGUCUGUAAUCAUUUUAAGGGUA [C6U U108C]  0.08
3. GUUAAUGGUCAUAGGCCAUGGAAACUAGGAGCACCAUUUCGCUGCCAGUGAAGAAAUGAACAAAGAAAAUCUGGGCCUGGCAGGCAUCAAAAGAAAUAGUCUUGCGCUCAACCAGAAAGUCUGUAAUCAUUUUAAGGGUA [C6U A78U]  0.25
4. GUUAAUGGUCAUAGGCCAUGGAAACUAGGAGCACCAUUUCGCUGCCAGUGAAGAAAUGAACAAAGAAAAUCUGGGCCAGGCAGGCAUCAAAAGAAAUAGUCCUGCGCUCAACCAGAAAGUCUGUAAUCAUUUUAAGGGUA [C6U U102C]  0.35
5. GUUAAUGGUCAUAGGCCAUGGAAACUAGGAGCACCAUUUCGCUGCCAGUGAAGAAAUGAACAAAGAAAAUCUGGGCCGGGCAGGCAUCAAAAGAAAUAGUCUUGCGCUCAACCAGAAAGUCUGUAAUCAUUUUAAGGGUA [C6U A78G]  0.4
6. GUUAAUGGUCAUAGGCCAUGGAAACUAGGAGCACCAUUUCGCUGCCAGUGAAGAAAUGAACAAAGAAAAUCUGGGCCAGGCAGGCAUCAAAAGAAAUAGUCUUGCGCUCAACCAGAAAGUCUGUAAUCAGUUUAAGGGUA [C6U U130G]  0.44
7. GUUAAUGGUCAUAGGCCAUGGAAACUAGGAGCACCAUUUCGCUGCCAGUGAAGAAAUGAACAAAGAAAAUCUGGGCCAGGCAGGCAUCAAAAGAAAUAGUCUUGCGCUCAACCAGAAAGUCUGUGAUCAUUUUAAGGGUA [C6U A125G]  0.53
8. GUUAAUGGUCAUAGGCCAUGGAAACUAGGAGCACCAUUUCGCUGCCAGUGAAGAAAUGAACAAAGAAAAUCUGGGCCAGGCAGGCAUCAAAAGAAAUAGUCUUGCGCUCAACCAGAAAGUCUGUAACCAUUUUAAGGGUA [C6U U127C]  0.57
9. GUUAAUGGUCAUAGGCCAUGGAAACUAGGAGCACCAUUUCGCUGCCAGUGAAGAAAUGAACAAAGAAAAUCUGGGCCAGGCAGGCAUCAAAAGAAAUAGUCUUGCGCUCAACCAGAAAGUCUGUAAUCACUUUAAGGGUA [C6U U130C]  0.74
10. GUUAAUGGUCAUAGGCCAUGGAAACUAGGAGCACCAUUUCGCUGCCAGUGAAGAAAUGAACAAAGAAGAUCUGGGCCAGGCAGGCAUCAAAAGAAAUAGUCUUGCGCUCAACCAGAAAGUCUGUAAUCAUUUUAAGGGUA [C6U A68G]  0.79
11. GUUAACAGUCAUAGGCCAUGGAAACUAGGAGCACCAUUUCGCUGCCAGUGAAGGAAUGAACAAAGAAAAUCUGGGCCAGGCAGGCAUCAAAAGAAAUAGUCUUGCGCUCAACCAGAAAGUCUGUAAUCAUUUUAAGGGUA [G7A A54G]  0.81
12. GUUAACAGUCAUAGGCCAUGGAGACUAGGAGCACCAUUUCGCUGCCAGUGAAGAAAUGAACAAAGAAAAUCUGGGCCAGGCAGGCAUCAAAAGAAAUAGUCUUGCGCUCAACCAGAAAGUCUGUAAUCAUUUUAAGGGUA [G7A A23G]  0.87
13. GUUAAUGGUCAUAGGCCAUGGAAACUAGGAGCACCAUUUCGCAGCCAGUGAAGAAAUGAACAAAGAAAAUCUGGGCCAGGCAGGCAUCAAAAGAAAUAGUCUUGCGCUCAACCAGAAAGUCUGUAAUCAUUUUAAGGGUA [C6U U43A]  0.96
14. GUUAAUGGUCAUAGGCCAUGGAAACUAGGAGCACCAUUUCGCUGCCAGUGAAGAAAUGAACAAAGAAAAUCUGGGCCAGGCAGGCAUCAAAAGAAAUAGUCUUGCGCUCAACCAGAAGGUCUGUAAUCAUUUUAAGGGUA [C6U A118G]  1.06
15. GUUAACAGUCAUAGGCCAUGGAAACUAGGAGCAUCAUUUCGCUGCCAGUGAAGAAAUGAACAAAGAAAAUCUGGGCCAGGCAGGCAUCAAAAGAAAUAGUCUUGCGCUCAACCAGAAAGUCUGUAAUCAUUUUAAGGGUA [G7A C34U]  1.3
16. GUUAAUGGUCAUAGGCCAUGGAAACUAGGAGCACCAUUUCGCUGCCAGUGAAGAAAUGAACAAAGAGAAUCUGGGCCAGGCAGGCAUCAAAAGAAAUAGUCUUGCGCUCAACCAGAAAGUCUGUAAUCAUUUUAAGGGUA [C6U A67G]  1.39
17. GUUAACAGUCAUAGGCCAUGGAAACUAGGAGCACCAUUUCGCUGCCAGUGAAGAGAUGAACAAAGAAAAUCUGGGCCAGGCAGGCAUCAAAAGAAAUAGUCUUGCGCUCAACCAGAAAGUCUGUAAUCAUUUUAAGGGUA [G7A A55G]  1.39
18. GUUAACAGUCAUAGGCCAUGGAAGCUAGGAGCACCAUUUCGCUGCCAGUGAAGAAAUGAACAAAGAAAAUCUGGGCCAGGCAGGCAUCAAAAGAAAUAGUCUUGCGCUCAACCAGAAAGUCUGUAAUCAUUUUAAGGGUA [G7A A24G]  1.4
19. GUUAACAGUCAUAGGCCAUGGAAACUAGGAGCACCAUUUCGCUGCCAGUGAAGAAAUGAACAAAGAAAAUCUGGGCCAGGCAGGCAUCAAAAGAAAUAGUCUUGCGCUCAACCAGAAAGUCUGUAAUCAUUUUAAGGGUA [G7A]  1.65
20. GUUAACAGUCAUAGGCCAUGGAAACUAGGAGCACCAUUUCGCUGCCAGUGAAGAAAUGAACAAAGAAAAUCUGGGCCAGGCAGGCUUCAAAAGAAAUAGUCUUGCGCUCAACCAGAAAGUCUGUAAUCAUUUUAAGGGUA [G7A A86U]  1.86
